This is an account of results in patent US20230416341A1, “IMPROVED THROMBIN INHIBITORS FOR TREATMENT OF THROMBOEMBOLIC CONDITIONS” (priority 2020, published 2023).

Some results are limits rather than exact numbers.

The target in test [1] is T1, human α-thrombin (Haematologic Technologies) (human), P00734. The test can be described thus: inhibition of amidolytic activity of human α-thrombin (0.2 nM enzyme, chromogenic substrate Tos-Gly-Pro-Arg-pNA), tight-binding Morrison fit.
For test [2], the target named is T1, human α-thrombin (Haematologic …). The test can be described thus: thrombin inhibition; sulfated at Y33. Conditions: chains peptide; modification not given.
Test [3] has the same target. The test can be described thus: thrombin inhibition; unsulfated; unit from column head of Figure 1 table. Conditions: chains peptide; modification not given.
Test [4] shares this target. Kind of test: inhibition of amidolytic activity of human α-thrombin; reference is unsulfated SEQ ID No:2.
For test [5] the target is unchanged. The test can be described thus: thrombin inhibition; sulfated at Y33 and Y36. Conditions: chains peptide; modification not given.
Test [6] shares this target. Kind of test: thrombin inhibition; sulfated at Y36. Conditions: chains peptide; modification not given.
The target is the same in test [7]. The test can be described thus: thrombin inhibition; sulfated at Y32. Conditions: chains peptide; modification not given.
For test [8] the target is unchanged. Kind of test: inhibition of amidolytic activity of human α-thrombin; reference is unsulfated SEQ ID No:1.
Test [9] has the same target. The test can be described thus: thrombin inhibition; sulfated at Y32 and Y35. To be noted: chains peptide; modification not given.
For test [10] the target is unchanged. Kind of test: thrombin inhibition; sulfated at Y35. To be noted: chains peptide; modification not given.
The target is the same in test [11]. The test can be described thus: thrombin inhibition; unsulfated. Conditions: chains peptide; modification not given.

B1: SEQ ID No:2 (MDL-1) Y33 (sulfated at Y33) (peptide)
peptide: YPERDSAKDGNEEQERALPVNVQERGEVADADYDDYDEEGTTPTVDPTAQTARPRLQGNQS
modifications: not checked
For B1, the Ki (commonly the dissociation constant of the complex between target and ligand, obtained from inhibition or displacement) in test [1] is < 20 nM; in [2], 3.59 nM.

B2: SEQ ID No:2 (MDL-1) Un (unsulfated) (protein)
chain: YPERDSAKDGNEEQERALPVNVQERGEVADADYDDYDEEGTTPTVDPTAQTARPRLQGNQS
Turning to B2, in test [3], the Ki turned out to be 73.8 nM.

B3: SEQ ID No:2 (MDL-1) DS (sulfated at Y33 and Y36) (peptide)
peptide: YPERDSAKDGNEEQERALPVNVQERGEVADADYDDYDEEGTTPTVDPTAQTARPRLQGNQS
modifications: not checked
Turning to B3, the fold more potent than the unsulfated counterpart in [4] was determined as 10 fold. Moreover, the Ki in [1] was < 20 nM; in [5], 2.06 nM.

B4: SEQ ID No:2 (MDL-1) Y36 (sulfated at Y36) (peptide)
peptide: YPERDSAKDGNEEQERALPVNVQERGEVADADYDDYDEEGTTPTVDPTAQTARPRLQGNQS
modifications: not checked
Consider B4, for which the Ki was < 20 nM in test [1] and 17.6 nM in test [6].

B5: SEQ ID No:1 (MDL-2) Y32 (sulfated at Y32) (peptide)
chain: YPESDSAKDDGNQEKEKALLVKVQERSDDGDYDEYDNDETTHTPDPSAPTARPRIREHQA
Consider B5, for which the figures for the Ki in test [7] and in test [1] were 1.99 nM and < 3 nM, respectively.

B6: SEQ ID No:1 (MDL-2) DS (sulfated at Y32 and Y35) (peptide)
peptide: YPESDSAKDDGNQEKEKALLVKVQERSDDGDYDEYDNDETTHTPDPSAPTARPRIREHQA
modifications: not checked
As for B6, the fold more potent than the unsulfated counterpart in test [8] is > 100 fold. Besides, the Ki in test [9] was 0.156 nM; in [1], < 3 nM.

B7: SEQ ID No:1 (MDL-2) Y35 (sulfated at Y35) (peptide)
chain: YPESDSAKDDGNQEKEKALLVKVQERSDDGDYDEYDNDETTHTPDPSAPTARPRIREHQA
As for B7, the Ki was 2.77 nM in test [10] and < 3 nM in test [1].

B8: SEQ ID No:1 (MDL-2) Un (unsulfated) (protein)
chain: YPESDSAKDDGNQEKEKALLVKVQERSDDGDYDEYDNDETTHTPDPSAPTARPRIREHQA
As to B8, in [11], the Ki worked out at 27.2 nM.
